The target of data set [1] is T1, zif268_GST (uncleaved fusion) (UniProt P08046 333-421). As to the kind of experiment: EMSA; 1:300 DNA:protein; EMSA: binding on ice, at least 1 h, native PAGE 8% (oligos) or 3.5% (1 kb), salt up to 1 M KCl; nanopore: 1 M KCl, 30 min incubation at 200:1 protein:DNA; pH no. For orientation: A gel shift assay detects complexes by their altered migration in electrophoresis.

Data set [2] deals with T2, zif268 (EGR1 DNA-binding domain), cleaved (UniProt P08046 333-421). The description is as above.
For data set [3], the target named is T2, zif268 (EGR1 DNA-binding domain), …. As to the kind of experiment: EMSA; up to 1 M KCl; binding saturates at about 1:200 DNA:protein; EMSA: binding on ice, at least 1 h, native PAGE 8% (oligos) or 3.5% (1 kb), salt up to 1 M KCl; nanopore: 1 M KCl, 30 min incubation at 200:1 protein:DNA; pH no.
Data set [4] addresses T1, zif268_GST (uncleaved fusion). As to the kind of experiment: EMSA; EMSA: binding on ice, at least 1 h, native PAGE 8% (oligos) or 3.5% (1 kb), salt up to 1 M KCl; nanopore: 1 M KCl, 30 min incubation at 200:1 protein:DNA; pH no.
Data set [5] concerns the target T2, zif268 (EGR1 DNA-binding domain), …. The data set is described as above.

B1: (+) 50 bp oligo, 2 sites separated by 6 bp (dsDNA)
DNA 1: CAGGCGTGGGCGCTGCAGGCGTGGGCGCC
DNA 2: TCGAGGCGCCCACGCCTGCAGCGCCCACGCCTGGTAC
Regarding B1, the binding result in data set [1] and in data set [2] was “binds” each time.

B2: Atto-647 50 bp oligo, 1 site (dsDNA)
DNA 1: AGTCTGTTACGCTGGCCTCTGCGTGGGCGAATTCGCATGCGCAACCCCAC
DNA 2: GTGGGGTTGCGCATGCGAATTCGCCCACGCAGAGGCCAGCGTAACAGACT
In the case of B2, in data set [3], the binding result was “binds”.

B3: (-) 50 bp oligo, no site (dsDNA)
DNA 1: CAGTATGCAAATGACTGCAGTATGCAAATGACC
DNA 2: TCGAGGTCATTTGCATACTGCAGTCATTTGCATACTGGTAC
Turning to B3, the binding result in data set [4] and in data set [5] was “no binding” throughout.
